Assay results from PMC3511050 (FEBS letters, 2012).
One block for each molecule: values may come before it.

Legend:
SufE (Escherichia coli) = SufE (Escherichia coli) (UniProt P76194); assay: SPR; settings: cited from earlier work
SufE (E. coli), P76194 = target: T1, SufE (E. coli), P76194; assay: cross-linking; settings: remark: other sources report otherwise
T1 chain: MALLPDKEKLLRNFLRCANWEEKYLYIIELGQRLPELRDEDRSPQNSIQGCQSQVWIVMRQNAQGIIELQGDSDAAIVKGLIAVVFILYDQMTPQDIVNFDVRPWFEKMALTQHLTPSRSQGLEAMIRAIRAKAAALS

[1] = target: T2, SufS cysteine desulfurase (E. coli, UniProt P77444 1-406); assay: inhibition of enzyme activity
T2 sequence (looked up): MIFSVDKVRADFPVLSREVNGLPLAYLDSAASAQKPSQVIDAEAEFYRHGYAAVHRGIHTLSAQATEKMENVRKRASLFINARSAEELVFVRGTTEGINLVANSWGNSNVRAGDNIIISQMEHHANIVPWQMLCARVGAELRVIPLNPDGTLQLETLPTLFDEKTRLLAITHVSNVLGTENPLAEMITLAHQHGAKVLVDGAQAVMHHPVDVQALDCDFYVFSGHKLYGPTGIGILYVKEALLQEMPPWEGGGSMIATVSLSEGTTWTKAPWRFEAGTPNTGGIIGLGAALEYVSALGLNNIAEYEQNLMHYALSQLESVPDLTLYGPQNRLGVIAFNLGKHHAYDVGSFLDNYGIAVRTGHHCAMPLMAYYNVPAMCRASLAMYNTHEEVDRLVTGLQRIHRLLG

Molecule: SufS (from UniProt P77444)
Kd (SufE (Escherichia coli)): 360 nM

percent of total protein as disulfide-bonded homodimer (with or without H2O2) (SufE (E. coli), P76194): 18%
stoichiometry N (SufE (E. coli), P76194): 2
B1: SufE, P76194 1-138 (natural protein)
chain: MALLPDKEKLLRNFLRCANWEEKYLYIIELGQRLPELRDEDRSPQNSIQGCQSQVWIVMRQNAQGIIELQGDSDAAIVKGLIAVVFILYDQMTPQDIVNFDVRPWFEKMALTQHLTPSRSQGLEAMIRAIRAKAAALS

Ki [1]: 190 nM
B2: SufE where C51 has been covalently blocked with iodoacetamide (natural protein, E. coli, UniProt P76194 1-138, looked up)
chain: MALLPDKEKLLRNFLRCANWEEKYLYIIELGQRLPELRDEDRSPQNSIQGCQSQVWIVMRQNAQGIIELQGDSDAAIVKGLIAVVFILYDQMTPQDIVNFDVRPWFEKMALTQHLTPSRSQGLEAMIRAIRAKAAALS
modifications: C51 covalently blocked with iodoacetamide
